The text below walks through data of paper doi:10.1101/311027 (bioRxiv, 2018).

The target in test [1] is T1, Spc97 (S. cerevisiae, UniProt P38863 1-823).
T1 sequence: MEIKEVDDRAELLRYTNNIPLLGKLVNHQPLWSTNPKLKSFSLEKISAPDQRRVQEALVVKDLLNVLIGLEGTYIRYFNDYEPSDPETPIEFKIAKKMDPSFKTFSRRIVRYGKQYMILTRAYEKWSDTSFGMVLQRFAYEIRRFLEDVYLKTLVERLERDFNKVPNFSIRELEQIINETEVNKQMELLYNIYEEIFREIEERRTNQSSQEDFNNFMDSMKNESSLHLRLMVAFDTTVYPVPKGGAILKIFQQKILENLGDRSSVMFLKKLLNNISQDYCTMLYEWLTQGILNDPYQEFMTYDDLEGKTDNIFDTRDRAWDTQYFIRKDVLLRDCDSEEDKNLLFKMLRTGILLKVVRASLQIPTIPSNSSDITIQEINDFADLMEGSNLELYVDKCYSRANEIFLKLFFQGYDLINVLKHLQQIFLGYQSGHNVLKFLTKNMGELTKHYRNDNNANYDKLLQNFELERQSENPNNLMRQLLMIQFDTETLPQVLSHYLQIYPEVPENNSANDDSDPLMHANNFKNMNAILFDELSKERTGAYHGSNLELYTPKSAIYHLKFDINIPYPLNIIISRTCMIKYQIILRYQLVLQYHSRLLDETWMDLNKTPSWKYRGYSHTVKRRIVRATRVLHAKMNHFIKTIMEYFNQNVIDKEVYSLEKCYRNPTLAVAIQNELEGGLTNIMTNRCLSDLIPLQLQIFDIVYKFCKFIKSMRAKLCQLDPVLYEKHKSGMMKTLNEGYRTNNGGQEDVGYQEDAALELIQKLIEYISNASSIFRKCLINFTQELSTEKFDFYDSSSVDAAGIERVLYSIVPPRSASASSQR
Put plainly: cross-linking.

Test [2] has as its target T2, Spc98 (S. cerevisiae, UniProt P53540 1-846).
T2 sequence: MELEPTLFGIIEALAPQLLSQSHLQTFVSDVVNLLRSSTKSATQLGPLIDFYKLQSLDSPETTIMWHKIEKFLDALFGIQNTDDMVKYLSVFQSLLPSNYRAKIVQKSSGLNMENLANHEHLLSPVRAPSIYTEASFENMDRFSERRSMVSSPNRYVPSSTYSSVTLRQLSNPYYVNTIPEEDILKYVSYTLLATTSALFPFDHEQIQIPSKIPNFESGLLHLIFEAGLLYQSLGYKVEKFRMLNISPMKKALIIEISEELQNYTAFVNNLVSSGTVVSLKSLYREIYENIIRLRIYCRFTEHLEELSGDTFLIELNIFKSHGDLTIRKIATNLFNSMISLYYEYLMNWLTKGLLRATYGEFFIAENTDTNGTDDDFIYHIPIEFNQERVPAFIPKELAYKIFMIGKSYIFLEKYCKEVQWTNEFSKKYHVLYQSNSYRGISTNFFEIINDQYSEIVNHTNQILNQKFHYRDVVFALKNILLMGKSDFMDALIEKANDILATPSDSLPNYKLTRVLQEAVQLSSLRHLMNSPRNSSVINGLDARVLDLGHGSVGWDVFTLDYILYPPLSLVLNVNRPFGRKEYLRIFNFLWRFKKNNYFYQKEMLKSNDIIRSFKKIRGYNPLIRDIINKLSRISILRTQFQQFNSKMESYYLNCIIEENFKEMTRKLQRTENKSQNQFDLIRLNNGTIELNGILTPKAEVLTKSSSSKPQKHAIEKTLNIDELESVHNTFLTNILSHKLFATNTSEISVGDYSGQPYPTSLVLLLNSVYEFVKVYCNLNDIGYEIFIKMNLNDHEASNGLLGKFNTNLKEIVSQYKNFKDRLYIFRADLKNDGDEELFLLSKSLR
Put plainly: cross-linking.

B1: Spc110^1-401-GST (domain or fragment, S. cerevisiae, UniProt P32380 1-401, looked up)
chain: MDEASHLPNGSLKNMEFTPVGFIKSKRNTTQTQVVSPTKVPNANNGDENEGPVKKRQRRSIDDTIDSTRLFSEASQFDDSFPEIKANIPPSPRSGNVDKSRKRNLIDDLKKDVPMSQPLKEQEVREHQMKKERFDRALESKLLGKRHITYANSDISNKELYINEIKSLKHEIKELRKEKNDTLNNYDTLEEETDDLKNRLQALEKELDAKNKIVNSRKVDDHSGCIEEREQMERKLAELERKLKTVKDQVLELENNSDVQSLKLRSKEDELKNLMNELNELKSNAEEKDTQLEFKKNELRKRTNELNELKIKSDEMDLQLKQKQNESKRLKDELNELETKFSENGSQSSAKENELKMLKNKIAELEEEISTKNSQLIAKEGKLASLMAQLTQLESKLNQRD
As to B1, the binding result in test [1] and in test [2] was “binds” throughout.
